These results are taken from patent US20060287501A1 (Pieris, published 2006).

The target of assay [1] is T1, recombinant Nogo-A fragment NI-Fr4 (rat, UniProt Q9JK11 233-941).
T1 construct: Truncated rat Nogo-A with N-terminal Strep-tag II and C-terminal His6
T1 sequence: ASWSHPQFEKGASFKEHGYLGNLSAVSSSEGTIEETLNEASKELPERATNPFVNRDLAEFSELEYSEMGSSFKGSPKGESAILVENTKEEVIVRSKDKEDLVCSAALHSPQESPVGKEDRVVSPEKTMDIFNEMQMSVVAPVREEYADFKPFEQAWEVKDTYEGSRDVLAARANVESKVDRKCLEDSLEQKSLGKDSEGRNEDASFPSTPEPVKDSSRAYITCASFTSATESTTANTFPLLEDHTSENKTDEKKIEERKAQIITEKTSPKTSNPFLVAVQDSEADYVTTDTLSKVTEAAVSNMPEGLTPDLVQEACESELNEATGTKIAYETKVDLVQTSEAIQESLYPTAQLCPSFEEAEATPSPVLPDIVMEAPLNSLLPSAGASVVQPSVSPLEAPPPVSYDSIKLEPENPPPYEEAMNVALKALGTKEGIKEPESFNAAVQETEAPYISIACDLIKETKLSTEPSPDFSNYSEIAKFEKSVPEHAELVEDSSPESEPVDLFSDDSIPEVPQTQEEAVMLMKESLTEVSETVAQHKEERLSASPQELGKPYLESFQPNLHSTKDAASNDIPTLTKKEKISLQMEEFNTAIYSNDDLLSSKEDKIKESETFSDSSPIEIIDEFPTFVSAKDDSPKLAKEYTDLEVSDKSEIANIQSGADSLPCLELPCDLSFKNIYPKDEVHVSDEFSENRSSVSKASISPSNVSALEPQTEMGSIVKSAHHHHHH
Put plainly: SPR (Biacore X); NI-Fr4 on Ni/NTA chip via His6, Fab (pASK107, Strep-tag II) at 0.25-6.8 µM, equilibrium fit. The procedure:
The thermodynamic affinity for the recombinant Nogo-A fragment NI-Fr4 was determined both for the II.1.8 mutant and for the wild-type IN-1 Fab fragment using the method of real time surface plasmon resonance (SPR) on a Biacore-X® system equipped with an Ni/NTA-derivatized sensor chip® (Biacore AB, Uppsala, Sweden). PBS containing 0.005% (v/v) surfactant P20 was used as continuous flow buffer as well as for dilution of proteins. Analysis was performed at 25° C. using a flow rate of 35 μl/min.
Then the Fab fragment (produced by means of the vector pASK107 and purified via the Strep-tag II; see Example 1)) was injected at a defined concentration (between 0.25 and 6.8 μM) for 2 minutes, followed by buffer flow for 4 minutes. The chip surface was regenerated using 70 μl 0.35 M EDTA, pH 8.0 in flow buffer prior to the next measurement. Each time-dependent binding isotherm of the Fab fragment was corrected for the background signal that was detected in the flow channel without NI-Fr4 using BIAevaluation software (Version 3.0). Resonance unit values for the bound Fab fragment at equilibrium for each applied concentration were then deduced and fitted (Voss and Skerra, supra) by non-linear least squares regression using an equation of the type y=a*x/(b+x). […]
(In general: Surface plasmon resonance follows binding to a sensor surface in real time, without labels.)

In assay [2] the target is T2, mutant of NI-Fr2 devoid of Cys^574 and Cys^676 (rat, UniProt Q9JK11 233-940, labelled with digoxigenin in the colony screening assay).
T2 sequence: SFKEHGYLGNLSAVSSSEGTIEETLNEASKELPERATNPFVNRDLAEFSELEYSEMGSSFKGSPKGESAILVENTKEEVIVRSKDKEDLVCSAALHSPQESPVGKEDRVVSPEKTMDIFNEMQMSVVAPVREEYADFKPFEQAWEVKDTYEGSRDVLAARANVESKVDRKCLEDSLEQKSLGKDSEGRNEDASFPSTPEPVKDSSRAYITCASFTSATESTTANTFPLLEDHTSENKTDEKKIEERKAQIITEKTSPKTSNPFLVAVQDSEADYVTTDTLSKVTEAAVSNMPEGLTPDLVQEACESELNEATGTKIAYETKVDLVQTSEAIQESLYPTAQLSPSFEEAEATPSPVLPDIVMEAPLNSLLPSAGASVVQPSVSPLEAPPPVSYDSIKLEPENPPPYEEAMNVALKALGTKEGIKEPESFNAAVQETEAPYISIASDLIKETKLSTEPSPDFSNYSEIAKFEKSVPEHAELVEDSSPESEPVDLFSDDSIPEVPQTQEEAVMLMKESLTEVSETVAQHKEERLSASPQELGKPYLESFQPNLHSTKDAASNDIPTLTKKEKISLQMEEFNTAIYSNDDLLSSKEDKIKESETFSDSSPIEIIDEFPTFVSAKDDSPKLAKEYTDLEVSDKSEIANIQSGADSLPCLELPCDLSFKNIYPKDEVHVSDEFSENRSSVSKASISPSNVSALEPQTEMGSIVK
Put plainly: filter-sandwich colony screening assay; Fab-ABD (pASK106) captured on HSA membrane, labelled NI-Fr2 mutant (no Cys574, Cys676) at 30 µg/ml. Here is the method: The first membrane, carrying tiny colonies of the transformed cells, was then placed onto the second (hydrophobic) membrane. The filter sandwich was incubated for 16 h at 22° C. During this period the mutated IN-1 Fab fragments became secreted—and partially released from the colonies by leakage from the bacterial periplasm—and finally immobilized on the lower membrane via complex formation between HSA and ABD.
The first membrane with the still viable colonies was transferred to a fresh LB/Amp agar plate and stored at 4° C. The second membrane was washed three times in PBS containing 0.1% (v/v) Tween 20 (PBS/T) and the immobilized Fab fragments, each in a spot 30 corresponding to the position of the original colony, were probed for antigen binding. To this end recombinant Nogo-A fragment NI-FR2 was labeled at a molar ratio of 5:1 with digoxigenin-3-O-methylcarbonyl-e-aminocaproic acid N-hydroxy-succinimide ester (Roche Diagnostics, Mannheim, Germany) and applied to the membrane for one hour at a concentration of 30 or 50 μg/ml in PBS/T. After washing three times with PBS/T the membrane was incubated for one hour with 0.75 u/ml anti-digoxigenin Fab fragment conjugated with alkaline phosphatase (Roche Diagnostics) in 10 ml PBS/T. The membrane was finally washed twice with PBS/T and twice with PBS and the signals were developed using standard chromogenic substrates as described (Schlehuber et al., supra). Colonies corresponding to signals with an intensity above average were identified, recovered from the first membrane, and propagated for further analysis of their recombinant gene product.
CDR-L3 forms a connecting loop between two neighboring beta-strands such that the positions L91 and L92 are in close spatial proximity with L96. […] This time the stringency of selection was raised by lowering the concentration of the recombinant antigen - a mutant of NI-Fr2 devoid of Cys⁵⁷⁴ and Cys⁶⁷⁶—from 50 μg/ml to 30 μg/ml.

For assay [3], the target named is T3, recombinant Nogo-A fragment NI-Fr2 (rat, UniProt Q9JK11 233-941, labelled with digoxigenin (molar ratio 5:1) in the colony screening assay).
T3 construct: Truncated rat Nogo-A with C-terminal Strep-tag, made in the E. coli periplasm; also called MI-Fr2; wild-type NI-Fr2
T3 sequence: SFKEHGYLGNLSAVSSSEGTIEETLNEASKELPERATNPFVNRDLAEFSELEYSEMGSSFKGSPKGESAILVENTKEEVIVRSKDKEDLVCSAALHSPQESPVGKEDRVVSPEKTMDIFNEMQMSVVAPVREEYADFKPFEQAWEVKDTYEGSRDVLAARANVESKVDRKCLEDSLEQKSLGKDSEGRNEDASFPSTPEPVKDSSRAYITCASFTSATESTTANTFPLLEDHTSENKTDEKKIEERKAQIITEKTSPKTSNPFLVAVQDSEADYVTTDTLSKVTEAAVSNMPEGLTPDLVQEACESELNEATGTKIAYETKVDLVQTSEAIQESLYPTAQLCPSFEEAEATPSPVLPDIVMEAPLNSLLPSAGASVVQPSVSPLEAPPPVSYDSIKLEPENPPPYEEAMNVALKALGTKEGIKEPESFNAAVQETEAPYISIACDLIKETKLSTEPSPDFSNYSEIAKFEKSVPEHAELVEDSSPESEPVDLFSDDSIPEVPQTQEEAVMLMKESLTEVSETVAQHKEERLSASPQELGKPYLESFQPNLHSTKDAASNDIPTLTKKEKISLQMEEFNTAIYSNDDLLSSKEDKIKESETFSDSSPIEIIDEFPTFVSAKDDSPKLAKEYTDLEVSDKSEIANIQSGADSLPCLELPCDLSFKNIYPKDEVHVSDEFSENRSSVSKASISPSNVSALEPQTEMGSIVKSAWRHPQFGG
The assay is described as follows: ELISA, wells coated with NI-Fr2, bound Fab detected with anti-human Ckappa antibody-alkaline phosphatase, delta A405/delta t. Here is the method: Antigen-binding activity of the mutant Fab fragments was subsequently tested by ELISA using the recombinant NI-Fr2 for coating of the microtitre plate wells (FIG. 2).
ELISA was carried out in a 96 well microtitre plate (Becton Dickinson, Heidelberg, Germany) at ambient temperature with incubation steps of 1 h unless otherwise stated. Three washing steps with PBS/T were used after each incubation, and residual liquid was removed thoroughly. The wells were coated for 4 h with 50 μl of a solution of MI-Fr2 at concentrations between 180 and 200 μg/ml in PBS buffer and then blocked with 200 μl 3% (w/v) BSA, 0.5% (v/v) Tween 20 in PBS. After washing, 50 μl of the purified recombinant Fab fragment was applied at a dilution series in PBS/T. The wells were then incubated with 50 μl anti-human Cκ antibody conjugated with alkaline phosphatase (Sigma), diluted 1:1000 in PBS/T. Signals were finally developed in the presence of p-nitrophenyl phosphate (Voss and Skerra, (1997) Protein Eng., 10, 975-982). Enzymatic activity was measured at 25° C. as the change in absorbance at 405 nm per min with a SpectraMAX 250 instrument (Molecular Devices, Sunnyvale, Calif.). The data were corrected for background values determined in wells that were merely coated with BSA and fitted by non-linear least squares regression as described by Voss and Skerra, supra

For assay [4], the target named is T3, recombinant Nogo-A fragment NI-Fr2. The assay is described as follows: ELISA; NI-Fr2 coated, purified Fab (pASK88, His6), anti-human Ckappa-AP detection. In general terms: In an ELISA, binding on a coated surface is turned into a signal by an enzyme label.

B1: recombinant wild-type IN-1 Fab fragment (Fab, V domains shown)
VH: EVKLHESGPGLVRPGTSVKISCKASGYTFTNYWLGWVKQRPGHGLEWIGDIYPGGGYTNYNEKFKGKATLTADTSSSTAYMQLSSLTSEDSAVYFCARFYYGSSYWYFDVWGQGTTVTVSS
VL: DIELTQSPAIMAASVGETVTITCGASENIYGALNWYQRKQGKSPQLLIYGATNLADGMSSRFSGSGSGRQYSLKISSLHPDDVATYYCQNVLSTPRTFGAGTKLEIK
notes: Formats: pASK106 (ABD on light chain) in the colony screen, pASK88 (His6 on heavy chain) in ELISA, staining and neurite assay, pASK107 (Strep-tag II) in SPR; also called IN-1 wt; IN-1 (wild-type) Fab fragment
One may read the Kd as a measure of binding affinity in units of concentration. On to B1, for which the dissociation constant Kd in assay [1] turned out to be 7.8 µM.

B2: II.1.3 Fab fragment (Fab, V domains shown)
VH: EVKLHESGPGLVRPGTSVKISCKASGYTFTNYWLGWVKQRPGHGLEWIGDIYPGGGYTNYNEKFKGKATLTADTSSSTAYMQLSSLTSEDSAVYFCARFYYGSSYWYFDVWGQGTTVTVSS
VL: DIELTQSPAIMAASVGETVTITCGASENIYGALNWYQRKQGKSPQLLIYGATNLADGMSSRFSGSGSGRQYSLKISSLHPDDVATYYCQNMKRVPVTFGAGTKLEIK
notes: Chimeric Fab, human IgG1/kappa constant domains
Regarding B2, the binding result in assay [2] is “binds”.

B3: I.2.6(L96V) Fab fragment (Fab, V domains shown)
VH: EVKLHESGPGLVRPGTSVKISCKASGYTFTNYWLGWVKQRPGHGLEWIGDIYPGGGYTNYNEKFKGKATLTADTSSSTAYMQLSSLTSEDSAVYFCARFYYGSSYWYFDVWGQGTTVTVSS
VL: DIELTQSPAIMAASVGETVTITCGASENIYGALNWYQRKQGKSPQLLIYGATNLADGMSSRFSGSGSGRQYSLKISSLHPDDVATYYCQNVLRVPVTFGAGTKLEIK
notes: Chimeric Fab, human IgG1/kappa constant domains; also called I.2.6(^L96Val) Fab fragment; replacement Cys^L96->Val
On to B3, for which, in assay [3], the binding result is given as “binds”.

B4: I.1.4 Fab fragment (IN-1 mutant) (Fab, V domains shown)
VH: EVKLHESGPGLVRPGTSVKISCKASGYTFTNYWLGWVKQRPGHGLEWIGDIYPGGGYTNYNEKFKGKATLTADTSSSTAYMQLSSLTSEDSAVYFCARFYYGSSYWYFDVWGQGTTVTVSS
VL: DIELTQSPAIMAASVGETVTITCGASENIYGALNWYQRKQGKSPQLLIYGATNLADGMSSRFSGSGSGRQYSLKISSLHPDDVATYYCQNVLPVPWTFGAGTKLEIK
notes: as for B2
Take B4: in assay [4], the binding result is recorded as “binds”.

B5: II.1.1 Fab fragment (Fab, V domains shown)
VH: EVKLHESGPGLVRPGTSVKISCKASGYTFTNYWLGWVKQRPGHGLEWIGDIYPGGGYTNYNEKFKGKATLTADTSSSTAYMQLSSLTSEDSAVYFCARFYYGSSYWYFDVWGQGTTVTVSS
VL: DIELTQSPAIMAASVGETVTITCGASENIYGALNWYQRKQGKSPQLLIYGATNLADGMSSRFSGSGSGRQYSLKISSLHPDDVATYYCQNRKRVPVTFGAGTKLEIK
notes: as for B2
In the case of B5, the binding result in assay [2] is “binds”.

B6: II.1.7 Fab fragment (Fab, V domains shown)
VH: EVKLHESGPGLVRPGTSVKISCKASGYTFTNYWLGWVKQRPGHGLEWIGDIYPGGGYTNYNEKFKGKATLTADTSSSTAYMQLSSLTSEDSAVYFCARFYYGSSYWYFDVWGQGTTVTVSS
VL: DIELTQSPAIMAASVGETVTITCGASENIYGALNWYQRKQGKSPQLLIYGATNLADGMSSRFSGSGSGRQYSLKISSLHPDDVATYYCQNLKRVPVTFGAGTKLEIK
notes: as for B2
B6: in assay [2], the binding result is given as “binds”.
